Experimental data as given in PMC6251626.

B1: isolated TOG2 domain of Alp14 (residues 320-510) (domain or fragment)
chain: KDNDFFNLVAILTKSVSKDANIMVVINAAHCIQAMAKGLRSNFSKYASTSINALLERSKEKKANVIESLSSAMDAVLATSSLDDLAELIASFAGNKNPQIKSSCFSLFSRSFSNMTSLPSKFTVDTCAKACVPGVSDTFEPVRSAAAEALGVLMKLVGERAINQYLSPLDDIRKSKIRSFYETATVKAKAP
B2: wt-Alp14-dimer (S. pombe Alp14 residues 1-690) (domain or fragment)
chain: MSQDQEEDYSKLPLESRIVHKVWKVRLSAYEECSKSFSLSADGSDNCFELWNNQSELWKSVLTDSNVAAQEAGTAAFVAYCRFSDPSHLLKAREISVLSISEKCLTSPRAGTRENALEALMLLVEADSAAPVIESIIPSLSARSPKVIASNVAAIASLVEQFGAKVIPSKMIIPHISNLFGHADKNVRKEASRLTVNIYRWTGDPLKDLLFKDLRPVQTKELESLFAELPTEPPKQTRFLKSQQPTSEPNVETQVEEQPALENEESEPEPSDDQFDLVEEVDVLPNVDPNLETLMASSKWKDRKEALDKLLPVLSQPKIKDNDFFNLVAILTKSVSKDANIMVVINAAHCIQAMAKGLRSNFSKYASTSINALLERSKEKKANVIESLSSAMDAVLATSSLDDLAELIASFAGNKNPQIKSSCFSLFSRSFSNMTSLPSKFTVDTCAKACVPGVSDTFEPVRSAAAEALGVLMKLVGERAINQYLSPLDDIRKSKIRSFYETATVKAKAPTKKSKVKPSKQEESKVVVPSNAKAVKKSVVPSSPVVPSPRKATNKSLSMDVSKGNAFENGPLLPRPTTRPVSRGLSRGTSSSLQQKVKASTPLNSGALNETVQNLKNMELDDPAPQPAKHSRVDRYEHPKVLEDNDSTISSLESLKRENEELREQLKVEHEENISMQKQLSELKGELNTL
B3: isolated TOG1 domain of Alp14 (residues 1-270) (domain or fragment)
chain: MSQDQEEDYSKLPLESRIVHKVWKVRLSAYEECSKSFSLSADGSDNCFELWNNQSELWKSVLTDSNVAAQEAGTAAFVAYCRFSDPSHLLKAREISVLSISEKCLTSPRAGTRENALEALMLLVEADSAAPVIESIIPSLSARSPKVIASNVAAIASLVEQFGAKVIPSKMIIPHISNLFGHADKNVRKEASRLTVNIYRWTGDPLKDLLFKDLRPVQTKELESLFAELPTEPPKQTRFLKSQQPTSEPNVETQVEEQPALENEESEPEP
B4: wt-Alp14-monomer (S. pombe Alp14 residues 1-510) (domain or fragment)
chain: MSQDQEEDYSKLPLESRIVHKVWKVRLSAYEECSKSFSLSADGSDNCFELWNNQSELWKSVLTDSNVAAQEAGTAAFVAYCRFSDPSHLLKAREISVLSISEKCLTSPRAGTRENALEALMLLVEADSAAPVIESIIPSLSARSPKVIASNVAAIASLVEQFGAKVIPSKMIIPHISNLFGHADKNVRKEASRLTVNIYRWTGDPLKDLLFKDLRPVQTKELESLFAELPTEPPKQTRFLKSQQPTSEPNVETQVEEQPALENEESEPEPSDDQFDLVEEVDVLPNVDPNLETLMASSKWKDRKEALDKLLPVLSQPKIKDNDFFNLVAILTKSVSKDANIMVVINAAHCIQAMAKGLRSNFSKYASTSINALLERSKEKKANVIESLSSAMDAVLATSSLDDLAELIASFAGNKNPQIKSSCFSLFSRSFSNMTSLPSKFTVDTCAKACVPGVSDTFEPVRSAAAEALGVLMKLVGERAINQYLSPLDDIRKSKIRSFYETATVKAKAP

What was measured:
[1] = target: DRP-bound αβ-tubulin (1:1 complex of porcine αβ-tubulin and DARPin D1) (porcine) (UniProt P02550); experiment: ITC; TOG1 or TOG2 (100-250 μM) injected into a cell with 1:1 αβ-tubulin and DRP (20-40 μM); 25°C, 50 mM HEPES pH 7.3, 100 mM KCl, 1 mM MgCl2
[2] = target: DRP-bound αβ-tubulin (1:1 complex of porcine αβ-tubulin and DARPin D1) (porcine) (UniProt P02550); experiment: ITC; TOG1 or TOG2 (100-250 μM) injected into a cell with 1:1 αβ-tubulin and DRP (20-40 μM); 25°C, 50 mM HEPES pH 7.3, 200 mM KCl, 1 mM MgCl2
[3] = target: αβ-tubulin heterodimer purified from porcine brains (porcine) (UniProt P02550); experiment: SEC-MALS; Alp14 constructs mixed with soluble αβ-tubulin (with or without DRP), Superdex 200 Increase 10/300, 80-100 mM KCl
[4] = target: DRP-bound αβ-tubulin (1:1 complex of porcine αβ-tubulin and DARPin D1) (porcine) (UniProt P02550); experiment: SEC; quantitative SEC (Superdex 200 10/300) with SDS-PAGE densitometry of fractions; 1 αβ-tubulin per Alp14 subunit, with or without DRP; 100 mM KCl, 50 mM HEPES pH 7.0, 1 mM MgCl2, 1 mM β-mercaptoethanol
[5] = target: αβ-tubulin heterodimer purified from porcine brains (porcine) (UniProt P02550); experiment: as above
[6] = target: DRP-bound αβ-tubulin (1:1 complex of porcine αβ-tubulin and DARPin D1) (porcine) (UniProt P02550); experiment: SEC; quantitative SEC (Superdex 200 10/300) with SDS-PAGE densitometry of fractions; 1 αβ-tubulin per Alp14 subunit, with or without DRP; 200 mM KCl, 50 mM HEPES pH 7.0, 1 mM MgCl2, 1 mM β-mercaptoethanol
[7] = target: αβ-tubulin heterodimer purified from porcine brains (porcine) (UniProt P02550); experiment: as above
[8] = target: DRP-bound αβ-tubulin (1:1 complex of porcine αβ-tubulin and DARPin D1) (porcine) (UniProt P02550); experiment: SEC; quantitative SEC (Superdex 200 10/300) with SDS-PAGE densitometry of fractions; 2 αβ-tubulin per Alp14 subunit, with or without DRP; 200 mM KCl, 50 mM HEPES pH 7.0, 1 mM MgCl2, 1 mM β-mercaptoethanol
[9] = target: αβ-tubulin heterodimer purified from porcine brains (porcine) (UniProt P02550); experiment: as above
[10] = target: DRP-bound αβ-tubulin (1:1 complex of porcine αβ-tubulin and DARPin D1) (porcine) (UniProt P02550); experiment: SEC; quantitative SEC (Superdex 200 10/300) with SDS-PAGE densitometry of fractions; 2 αβ-tubulin per Alp14 subunit, with or without DRP; 100 mM KCl, 50 mM HEPES pH 7.0, 1 mM MgCl2, 1 mM β-mercaptoethanol
[11] = target: αβ-tubulin heterodimer purified from porcine brains (porcine) (UniProt P02550); experiment: as above
[12] = target: DRP-bound αβ-tubulin (1:1 complex of porcine αβ-tubulin and DARPin D1) (porcine) (UniProt P02550); experiment: SEC-MALS; Alp14 constructs mixed with soluble αβ-tubulin (with or without DRP), Superdex 200 Increase 10/300, 80-100 mM KCl

| Binder | Kd [1] [nM] | Kd [2] [nM] | stoichiometry N [3] | TOG1-TOG2:αβ-tubulin molar ratio [4] | µM tubulin bound [4] [µM] | TOG1-TOG2:αβ-tubulin molar ratio [5] | µM tubulin bound [5] [µM] | TOG1-TOG2:αβ-tubulin molar ratio [6] | µM tubulin bound [6] [µM] | TOG1-TOG2:αβ-tubulin molar ratio [7] | µM tubulin bound [7] [µM] | TOG1-TOG2:αβ-tubulin molar ratio [8] | µM tubulin bound [8] [µM] | TOG1-TOG2:αβ-tubulin molar ratio [9] | µM tubulin bound [9] [µM] | TOG1-TOG2:αβ-tubulin molar ratio [10] | µM tubulin bound [10] [µM] | TOG1-TOG2:αβ-tubulin molar ratio [11] | µM tubulin bound [11] [µM] | also measured |
| --- | --- | --- | --- | --- | --- | --- | --- | --- | --- | --- | --- | --- | --- | --- | --- | --- | --- | --- | --- | --- |
| B1 | 173 | 3250 | – | – | – | – | – | – | – | – | – | – | – | – | – | – | – | – | – | – |
| B2 | – | – | 4 | 0.96 | 4.23 | 0.98 | 4.31 | 0.95 | 4.17 | 0.78 | 3.44 | 1.36 | 6.02 | 1.24 | 5.46 | 1.89 | 8.33 | 1.61 | 7.11 | stoichiometry N [10]: 4 |
| B3 | 70 | 1500 | – | – | – | – | – | – | – | – | – | – | – | – | – | – | – | – | – | – |
| B4 | – | – | 2 | 0.98 | 4.33 | 1.04 | 4.57 | 0.94 | 4.13 | 0.76 | 3.37 | 1.28 | 5.67 | 1.35 | 5.97 | 1.64 | 7.23 | 2 | 8.82 | stoichiometry N [12]: 2 |
